The target in series [1] is T1, 1-phosphatidylinositol 4,5-bisphosphate phosphodiesterase beta-1 (Homo sapiens) (UniProt Q9NQ66).
T1 sequence (whole entry): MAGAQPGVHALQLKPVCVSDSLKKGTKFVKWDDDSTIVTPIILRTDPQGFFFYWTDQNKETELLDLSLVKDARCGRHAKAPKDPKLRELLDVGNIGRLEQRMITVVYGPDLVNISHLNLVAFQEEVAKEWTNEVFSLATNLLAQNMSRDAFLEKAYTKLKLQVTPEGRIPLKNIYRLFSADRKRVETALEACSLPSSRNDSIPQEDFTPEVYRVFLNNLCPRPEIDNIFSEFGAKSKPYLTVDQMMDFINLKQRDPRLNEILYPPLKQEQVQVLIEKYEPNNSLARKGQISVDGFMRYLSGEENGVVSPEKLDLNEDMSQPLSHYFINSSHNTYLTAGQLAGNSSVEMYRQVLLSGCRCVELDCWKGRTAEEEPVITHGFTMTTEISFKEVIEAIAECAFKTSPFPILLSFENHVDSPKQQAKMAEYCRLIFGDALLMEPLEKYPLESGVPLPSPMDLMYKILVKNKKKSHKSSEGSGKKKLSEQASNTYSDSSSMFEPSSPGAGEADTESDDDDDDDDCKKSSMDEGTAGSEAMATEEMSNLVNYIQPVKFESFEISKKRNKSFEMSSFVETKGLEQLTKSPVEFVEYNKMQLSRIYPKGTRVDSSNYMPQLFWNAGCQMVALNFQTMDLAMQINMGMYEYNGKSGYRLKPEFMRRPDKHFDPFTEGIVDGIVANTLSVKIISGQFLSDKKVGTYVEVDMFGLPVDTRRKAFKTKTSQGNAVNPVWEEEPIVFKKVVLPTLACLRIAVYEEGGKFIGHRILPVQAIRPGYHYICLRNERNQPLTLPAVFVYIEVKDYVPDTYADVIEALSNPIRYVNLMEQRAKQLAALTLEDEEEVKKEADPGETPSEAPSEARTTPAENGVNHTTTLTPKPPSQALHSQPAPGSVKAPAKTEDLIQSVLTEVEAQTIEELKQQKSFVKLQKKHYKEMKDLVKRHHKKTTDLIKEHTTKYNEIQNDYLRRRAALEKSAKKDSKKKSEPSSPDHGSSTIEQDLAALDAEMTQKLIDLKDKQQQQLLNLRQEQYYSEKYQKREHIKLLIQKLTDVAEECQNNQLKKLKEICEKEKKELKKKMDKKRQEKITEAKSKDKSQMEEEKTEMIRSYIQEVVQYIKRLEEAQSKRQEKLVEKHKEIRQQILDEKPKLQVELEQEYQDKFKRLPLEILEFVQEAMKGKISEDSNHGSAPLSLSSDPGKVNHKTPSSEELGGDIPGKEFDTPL
Briefly: Ratio of the kinetic constant kcat to that of KM.

Series [2] has as its target T1, 1-phosphatidylinositol 4,5-bisphosphate phosphodiesterase beta-1 (Homo sapiens). Briefly: Kinetic constant kcat against human phosphoinositide-specific phospholipase C.
Substrate in series [3]: O=[N+]([O-])c1ccc(OP(=O)(O)O[C@@H]2[C@H](O)[C@H](O)[C@@H](OP(=O)(O)O)[C@H](OP(=O)(O)O)[C@H]2O)cc1
Nature of the series: Michaelis-Menten constant of the compound (D-isomer) was determined against human phosphoinositide-specific phospholipase C.

Substrate in series [4]: O=[N+]([O-])c1ccc(OP(=O)(O)O[C@@H]2[C@H](O)[C@H](O)[C@@H](OP(=O)(O)O)[C@H](OP(=O)(O)O)[C@H]2O)cc1
Nature of the series: Kinetic constant Vmax against human phosphoinositide-specific phospholipase C.

Substrate in series [5]: O=[N+]([O-])c1ccc(OP(=O)(O)O[C@@H]2[C@H](O)[C@H](O)[C@@H](OP(=O)(O)O)[C@H](OP(=O)(O)O)[C@H]2O)cc1
Nature of the series: Michaelis-Menten constant against human phosphoinositide-specific phospholipase C.

As for `O=[N+]([O-])c1ccc(OP(=O)(O)O[C@@H]2[C@H](O)[C@H](O)[C@@H](OP(=O)(O)O)[C@H](OP(=O)(O)O)[C@H]2O)cc1` (racemic), the Ratio in series [1] is 83000. Further, the k cat in series [2] was found to be 112 s⁻¹.

B1: 1-phosphatidylinositol 4,5-bisphosphate phosphodiesterase beta-1 (Homo sapiens), Q9NQ66 (protein)
chain: T1 sequence (whole entry)
What is called Km is the substrate concentration at which the rate is half of its maximum. The term Vmax denotes the rate approached at saturating substrate. Consider B1, for which the Michaelis-Menten constant (Km) in series [3] turned out to be 1350 µM; in series [5], 2700 µM. The Vmax in series [4] amounted to 78.5 µM/min/mg.

Source of the values: ChEMBL document CHEMBL1130356, “A CHROMOGENIC SUBSTRATE FOR THE CONTINUOUS ASSAY OF MAMMALIAN PHOSPHOINOSITIDE-SPECIFIC PHOSPHOLIPASE C” (Bioorg Med Chem Lett, 1997).
